Experimental data taken from the supplement of paper PMC7125110.
± gives the standard error. Variants at the floor of the assay were thinned out.

B1: glmS ribozyme (parent)
chain: AUAAAAGCGCCAGAACUACAGAAAUGUAGUUGACGAGGAGGAGGUUUAUCGAAUUUUCGGCGGAUGCCUCCAAA

How the values were obtained:
Conditions in all cases: with glucosamine-6-phosphate
[1] = variants of: B1; test: self-cleavage kobs at 40 uM GlcN6P; higher = faster cleavage; RNA array
Outline: (§1)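 Sequenced MiSeq chips were the platform: E. coli RNA polymerase transcribed barcoded ribozyme variants on them in situ, and a hybridised Cy3 probe tracked these at 37 °C. After glucosamine-6-phosphate (40 μM to 10 mM) in HEPES/KCl/Mg(OAc)2 buffer was flowed in, tiles were imaged over ~14 h. Signals normalised to baseline and to non-cleaving reference variants were reduced to per-tile medians and fit to one- or two-exponential decays to obtain kobs. kcat and KM were derived through weighted Michaelis–Menten fits across concentrations.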

[2] = variants of: B1; test: self-cleavage kobs at 10000 uM GlcN6P; higher = faster cleavage; RNA array
Outline: as §1

[3] = variants of: B1; test: self-cleavage kobs at 640 uM GlcN6P; higher = faster cleavage; RNA array
Outline: as §1

[4] = variants of: B1; test: self-cleavage kobs at 2500 uM GlcN6P; higher = faster cleavage; RNA array
Outline: as §1

[5] = variants of: B1; test: self-cleavage kobs at 160 uM GlcN6P; higher = faster cleavage; RNA array
Outline: as §1

Variant | self-cleavage kobs at 40 uM GlcN6P [1] [s⁻¹] | self-cleavage kobs at 10000 uM GlcN6P [2] [s⁻¹] | self-cleavage kobs at 640 uM GlcN6P [3] [s⁻¹] | self-cleavage kobs at 2500 uM GlcN6P [4] [s⁻¹] | self-cleavage kobs at 160 uM GlcN6P [5] [s⁻¹]
U45A U47G U57A | < 1e-05 | 0.000108 ± 2.3e-05 |  |  | 
G44U C50U A53C | < 1e-05 |  | < 1e-05 | < 1e-05 | 
U46C G59U | < 1e-05 |  |  |  | < 1e-05
U46C G59A | < 1e-05 | 4.71e-05 ± 1.4e-05 | < 1e-05 |  | 
C50G C67A C71A | 5.33e-05 ± 1.4e-05 | 6e-05 ± 1.6e-05 | 0.0002 ± 3.8e-05 | 8.26e-05 ± 1.6e-05 | 0.000226 ± 3.6e-05
G43C C50A U65C C68U | < 1e-05 | < 1e-05 |  |  | 
U45C A64G | 0.000103 ± 1.8e-05 | 0.00342 ± 0.00055 |  | 0.00182 ± 0.00053 | 
U47C C61U G63U | < 1e-05 |  |  |  | 
G44C C50A U55A C70U | < 1e-05 |  |  |  | 
U46G G51C | < 1e-05 | < 1e-05 | < 1e-05 |  | 
U47G C68U | 4.04e-05 ± 8.8e-06 | 0.0017 ± 0.00029 | 0.000601 ± 0.00012 | 0.0005 ± 0.00011 | 
U45A U69C | 0.000354 ± 5.9e-05 | 0.00144 ± 0.00031 | 0.000518 ± 0.00013 | 0.00166 ± 0.0005 | 0.000781 ± 0.00033
G43U A52U | < 1e-05 |  |  |  | < 1e-05
A48C G51U C67U | < 1e-05 | < 1e-05 |  |  | 
G43A G51C G63A C68U | < 1e-05 |  |  |  | 
G43U A53U U65G | < 1e-05 |  | < 1e-05 |  | 
U46C A52C | < 1e-05 |  |  |  | < 1e-05
C50G C68G | 0.00159 ± 0.00078 | 6.8e-05 ± 4.8e-06 | 0.000121 ± 1.1e-05 | 0.000142 ± 1.2e-05 | 
C50G C68U | 0.000168 ± 2.2e-05 | 0.000128 ± 1.3e-05 | 0.00021 ± 2.4e-05 | 0.000189 ± 2e-05 | 0.000233 ± 4.2e-05
G44U A64U | < 1e-05 | < 1e-05 | < 1e-05 | < 1e-05 | < 1e-05
A48U U55G G62C | < 1e-05 | < 1e-05 | < 1e-05 |  | 
U49G C58G | < 1e-05 |  |  |  | 
U47G G63U | < 1e-05 | < 1e-05 | < 1e-05 | < 1e-05 | < 1e-05

Variant | self-cleavage kobs at 40 uM GlcN6P [1] [s⁻¹] | self-cleavage kobs at 10000 uM GlcN6P [2] [s⁻¹] | self-cleavage kobs at 640 uM GlcN6P [3] [s⁻¹] | self-cleavage kobs at 2500 uM GlcN6P [4] [s⁻¹] | self-cleavage kobs at 160 uM GlcN6P [5] [s⁻¹]
U45C C61G | < 1e-05 | < 1e-05 | < 1e-05 | < 1e-05 | < 1e-05
U45C C61U | < 1e-05 | < 1e-05 | < 1e-05 |  | < 1e-05
C50G A64G C71A | 8.51e-05 ± 2.3e-05 | 9.96e-05 ± 2.1e-05 |  |  | 
C50G U69A | 0.000132 ± 2.4e-05 | 7.99e-05 ± 1.5e-05 | 0.000587 ± 0.0001 | 0.000186 ± 2.8e-05 | 0.000172 ± 2.9e-05
G44U U49G | < 1e-05 |  | < 1e-05 |  | < 1e-05
U45G G60C | < 1e-05 |  | < 1e-05 |  | 
G44A G59C C71U | < 1e-05 | < 1e-05 |  |  | 
U47G U49G C50G G51A C61A | 9.02e-05 ± 2.3e-05 | 0.000142 ± 3.3e-05 |  |  | 
G43C A64U | < 1e-05 | < 1e-05 |  | < 1e-05 | < 1e-05
G43C A64G | < 1e-05 | < 1e-05 | < 1e-05 | < 1e-05 | < 1e-05
U46C A53C U55A U56G G62C | < 1e-05 |  |  |  | 
U45G C50A U65G | < 1e-05 |  | < 1e-05 |  | 
U47A C68A | < 1e-05 |  |  |  | 
G44C G59C C61A | < 1e-05 | < 1e-05 | < 1e-05 | < 1e-05 | < 1e-05
A48C U65G | < 1e-05 |  |  |  | < 1e-05
U46C A64C | < 1e-05 | < 1e-05 |  | < 1e-05 | 
G44A U56C C61U | < 1e-05 | < 1e-05 | < 1e-05 | < 1e-05 | 
U46G U54C C71U | 8.18e-05 ± 1.8e-05 | 0.00463 ± 0.0014 |  | 0.00226 ± 0.00098 | 
G44U G66U U69G | < 1e-05 |  |  |  | 
U47G U56G C70A | 7.34e-05 ± 2.5e-05 | 6.01e-05 ± 1.4e-05 | 6.47e-05 ± 1.3e-05 | 7.39e-05 ± 1.8e-05 | 0.000192 ± 3.8e-05
G43C U46G U69C | < 1e-05 |  |  |  | 
G44C A64G C70U | < 1e-05 | < 1e-05 | < 1e-05 | < 1e-05 | 
A48U A64C | < 1e-05 |  | < 1e-05 |  | < 1e-05

Variant | self-cleavage kobs at 40 uM GlcN6P [1] [s⁻¹] | self-cleavage kobs at 10000 uM GlcN6P [2] [s⁻¹] | self-cleavage kobs at 640 uM GlcN6P [3] [s⁻¹] | self-cleavage kobs at 2500 uM GlcN6P [4] [s⁻¹] | self-cleavage kobs at 160 uM GlcN6P [5] [s⁻¹]
G43C U47G | < 1e-05 | < 1e-05 | < 1e-05 |  | 
U46A G51U | < 1e-05 | < 1e-05 | < 1e-05 | < 1e-05 | < 1e-05
A48G G51C | < 1e-05 | < 1e-05 |  | < 1e-05 | < 1e-05
G43A U49G | < 1e-05 |  | < 1e-05 | < 1e-05 | < 1e-05
G43U G51A | < 1e-05 |  | < 1e-05 |  | 
G44A U46C A53U C61U | < 1e-05 |  |  |  | 
U45A A52U | < 1e-05 | 0.001 ± 0.00019 | 0.000476 ± 0.00013 |  | 
U49C C61G | < 1e-05 | < 1e-05 |  |  | 
U47C A48C | < 1e-05 |  |  |  | < 1e-05
U49C G60A | < 1e-05 | < 1e-05 |  |  | < 1e-05
C50G G60C C67U | 6.17e-05 ± 1.7e-05 | 4.29e-05 ± 1.2e-05 | 0.000438 ± 0.00012 | 0.000124 ± 3.4e-05 | 
G43A G44U | < 1e-05 | < 1e-05 | < 1e-05 |  | < 1e-05
U45A U55A | 0.00151 ± 0.00018 | 0.09 ± 0.031 | 0.00993 ± 0.0023 | 0.00931 ± 0.0037 | 
U45A U55G | 0.00178 ± 0.00026 | 0.0415 ± 0.013 | 0.00532 ± 0.0012 | 0.00894 ± 0.0023 | 0.00389 ± 0.0012
A48C G62A | < 1e-05 | < 1e-05 | < 1e-05 | < 1e-05 | < 1e-05
U49A A52C | < 1e-05 | < 1e-05 | < 1e-05 |  | < 1e-05
G44U A53G C70A | < 1e-05 | < 1e-05 |  | < 1e-05 | 
G44A A48U U69G | < 1e-05 |  |  | < 1e-05 | 
U47G C70G C71G | 8.97e-05 ± 2.5e-05 |  |  |  | 
U47C G62A | < 1e-05 | < 1e-05 |  |  | 
G43A G62A | < 1e-05 | < 1e-05 |  | < 1e-05 | < 1e-05
G43A G62C | < 1e-05 | < 1e-05 |  | < 1e-05 | 
U46A U57A | < 1e-05 |  |  |  | < 1e-05

Variant | self-cleavage kobs at 40 uM GlcN6P [1] [s⁻¹] | self-cleavage kobs at 10000 uM GlcN6P [2] [s⁻¹] | self-cleavage kobs at 640 uM GlcN6P [3] [s⁻¹] | self-cleavage kobs at 2500 uM GlcN6P [4] [s⁻¹] | self-cleavage kobs at 160 uM GlcN6P [5] [s⁻¹]
G43C G59U | < 1e-05 | < 1e-05 | < 1e-05 | < 1e-05 | < 1e-05
C50A G62A A64C | < 1e-05 | < 1e-05 |  |  | 
C50G U54G G60A C70G | < 1e-05 |  | < 1e-05 |  | 
C50G C67U C68U C71U | 0.000172 ± 4.1e-05 | 7.29e-05 ± 1.3e-05 | 0.000393 ± 0.00011 | 0.000127 ± 3e-05 | 
G44A A48C | < 1e-05 |  | < 1e-05 | < 1e-05 | < 1e-05
C50G C58A | 5.49e-05 ± 1.6e-05 | 3.98e-05 ± 1.7e-05 | 0.000175 ± 4.4e-05 | 0.000194 ± 3.7e-05 | 0.000151 ± 4.4e-05
C50G C58G | 8.56e-05 ± 1.3e-05 |  | 0.000235 ± 5.2e-05 | 6.82e-05 ± 1.8e-05 | 0.000155 ± 2.6e-05
C50G C58U | 0.000198 ± 9.7e-05 |  |  | 0.000443 ± 0.00019 | 9.14e-05 ± 2.2e-05
A48U C61A | < 1e-05 | < 1e-05 |  |  | < 1e-05
U46C C50A C58U G62C | < 1e-05 |  |  |  | 
U49G U54G | 3.67e-05 ± 1.4e-05 | 0.000838 ± 0.00014 |  |  | 
C50G G63A | 5.7e-05 ± 1.5e-05 |  | 4e-05 ± 1.7e-05 | 3.78e-05 ± 1.6e-05 | 0.000484 ± 0.00023
U46G A53U C70G | 5.33e-05 ± 2.4e-05 | 0.000165 ± 4e-05 |  | 0.000254 ± 7.7e-05 | 
G44A U45C A48U | < 1e-05 |  |  |  | 
U46C U57A | < 1e-05 | 5.47e-05 ± 1.8e-05 |  |  | 
U49G C61A G62U | < 1e-05 | < 1e-05 | < 1e-05 | < 1e-05 | 
A48U G63A | < 1e-05 | < 1e-05 | < 1e-05 | < 1e-05 | 
G43A U47G U54A | < 1e-05 |  |  |  | 
C50U G62U | < 1e-05 | < 1e-05 |  |  | 
G43A G51U | < 1e-05 |  |  | < 1e-05 | < 1e-05
U47G U56A C58U A64G U69A C70A | 5.21e-05 ± 2.2e-05 | 3.66e-05 ± 1.4e-05 |  |  | 
